Data on three molecules can be found in patent US20220017630A1 (JIANGSU SIMCERE PHARMACEUTICAL, published 2022).

Assay [1] has as its target T1, human TNFR2 on the cell surface (CHO-TNFR2 cells; human Treg cells) (human, UniProt P20333 23-461).
T1 construct: whole, on cells; The assay field of each row says which cells; also called TNFR2-CHO cell; TNFR2 on Treg cells
T1 sequence (looked up): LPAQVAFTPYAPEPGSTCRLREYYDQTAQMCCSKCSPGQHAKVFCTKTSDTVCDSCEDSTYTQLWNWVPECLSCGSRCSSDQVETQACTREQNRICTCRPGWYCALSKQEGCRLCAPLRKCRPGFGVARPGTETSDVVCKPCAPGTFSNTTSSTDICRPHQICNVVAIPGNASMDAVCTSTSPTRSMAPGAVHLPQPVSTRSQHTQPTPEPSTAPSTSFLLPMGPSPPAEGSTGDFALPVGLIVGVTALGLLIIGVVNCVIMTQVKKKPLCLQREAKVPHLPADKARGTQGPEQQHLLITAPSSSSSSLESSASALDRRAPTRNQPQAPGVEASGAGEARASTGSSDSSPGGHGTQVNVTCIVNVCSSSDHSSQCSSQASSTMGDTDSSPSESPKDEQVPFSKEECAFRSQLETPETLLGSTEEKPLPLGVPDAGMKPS
Kind of assay: flow cytometry, blocking of TNFα-biotin on CHO-TNFR2 cells. Here is the method: CHO cells that stably overexpressed human TNFR2 were used for experiments. The cells were resuscitated and passaged until in good state, and the expression level of human TNFR2 on the cells was assessed by FACS. Compared to the isotype control, the assay could be carried out when the fold change of mean fluorescence intensity (MFI) was more than 100 times.
CHO-TNFR2 cells were digested, washed twice with DPBS and stained with Live/Dead (L/D) at room temperature for 20 min, and then seeded at 1×10⁵ cells/50 μl/well. […] The diluted antibodies were added 50 μl/well into wells pre-seeded with cells, and gently blown and mixed to make the final concentrations of the antibodies to 20, 6.67, 2.22, 0.74, 0.247, 0.08, 0.027 and 0 nM, respectively followed by incubation at 4° C. for 30 min. […] After washing twice with the staining buffer, 100 μl/well of PE-streptavidin was added and incubated at 4° C. for 30 min. After additional washing with the staining buffer twice, 150 μl resuspended cells was analyzed using an flow cytometry. Taking the logarithmic value of the antibody concentrations as abscissa and the corresponding MFI value as ordinate, the inhibition curve of the antibody was drawn, and the IC50 value was calculated by four parameters fitting.

Assay [2] deals with T2, human TNFR2 (Novoprotein, Catalog No. C830) (human, UniProt P20333 23-257, limits assumed).
T2 construct: construct not described; also called TNFR2 protein
T2 sequence (looked up): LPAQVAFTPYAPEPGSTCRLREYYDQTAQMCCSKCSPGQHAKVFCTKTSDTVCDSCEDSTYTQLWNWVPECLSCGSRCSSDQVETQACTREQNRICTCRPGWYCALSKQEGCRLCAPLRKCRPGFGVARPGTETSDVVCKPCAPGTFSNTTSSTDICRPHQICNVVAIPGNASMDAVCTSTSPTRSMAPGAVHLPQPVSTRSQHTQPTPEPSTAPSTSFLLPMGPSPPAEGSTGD
Kind of assay: blocking ELISA, TNFα-biotin on coated human TNFR2; 002# OD / antibody OD x 100. Here is the method:
A microplate was pre-coated with 100 μl/well of 1 μg/ml human TNFR2 (Novoprotein, Catalog No. C830). […] After washing the plate, a Streptavidin-HRP working solution (1:10000 dilution) was added at 100 μl/well, and incubated with shaking at room temperature for 40 min. The plate was washed again, the HRP substrate TMB was added for color development, the termination solution was added to terminate the reaction, and the microplate reader was used to read the absorption value.
In general terms: In an ELISA, binding on a coated surface is turned into a signal by an enzyme label.

The target in another assay is T3, mouse TNFR2 (mouse, UniProt P25119 23-258, limits assumed).
T3 sequence (looked up): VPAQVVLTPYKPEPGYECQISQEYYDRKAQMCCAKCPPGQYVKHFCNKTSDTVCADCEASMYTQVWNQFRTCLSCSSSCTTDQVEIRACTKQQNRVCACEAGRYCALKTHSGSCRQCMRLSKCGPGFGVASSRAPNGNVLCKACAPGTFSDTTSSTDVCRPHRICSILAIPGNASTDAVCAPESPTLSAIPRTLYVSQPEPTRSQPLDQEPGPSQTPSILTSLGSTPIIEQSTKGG
Kind of assay: ELISA.

A further assay has as its target T4, human CREG-His protein (human, UniProt O75629 32-220, limits assumed).
T4 construct: Control antigen in ELISA; also called control human CREG-His
T4 sequence (looked up): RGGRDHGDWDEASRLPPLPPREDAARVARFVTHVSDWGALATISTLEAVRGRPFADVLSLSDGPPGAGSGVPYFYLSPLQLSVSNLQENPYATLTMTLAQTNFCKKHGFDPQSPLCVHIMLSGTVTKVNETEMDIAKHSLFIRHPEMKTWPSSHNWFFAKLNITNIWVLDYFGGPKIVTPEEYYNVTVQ
Kind of assay: ELISA.

The target in assay [3] is T5, Human TNFR2 recombinant protein (Sino 10417-H08H) (human, UniProt P20333 23-257).
T5 construct: also called hTNFR2 (His tag)
T5 sequence (looked up): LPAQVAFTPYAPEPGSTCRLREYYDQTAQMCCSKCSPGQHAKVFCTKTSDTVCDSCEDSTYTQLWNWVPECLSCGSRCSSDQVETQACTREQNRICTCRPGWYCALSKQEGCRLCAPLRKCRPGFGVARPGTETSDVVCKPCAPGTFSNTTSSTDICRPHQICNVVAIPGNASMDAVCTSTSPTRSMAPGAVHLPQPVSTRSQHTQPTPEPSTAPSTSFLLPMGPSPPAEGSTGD
Briefly: ELISA, coated antigen 0.5 ug/ml, antibody 12 ng/ml.

The target in assay [4] is T6, cynomolgus TNFR2 (Sino 90102-C08H) (cynomolgus, UniProt A0A2K5VET2 132-366).
T6 construct: also called CynoTNFR2 (His tag)
T6 sequence: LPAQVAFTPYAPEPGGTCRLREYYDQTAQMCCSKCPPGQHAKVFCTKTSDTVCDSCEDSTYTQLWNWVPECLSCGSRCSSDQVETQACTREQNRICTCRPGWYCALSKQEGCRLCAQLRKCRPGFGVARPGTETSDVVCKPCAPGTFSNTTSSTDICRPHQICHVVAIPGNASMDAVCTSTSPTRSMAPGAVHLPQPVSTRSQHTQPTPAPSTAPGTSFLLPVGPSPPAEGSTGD
Briefly: ELISA, coated antigen 0.5 ug/ml, antibody 12 ng/ml.

Assay [5] has as its target T5, Human TNFR2 recombinant protein (Sino …). Briefly: ELISA, coated antigen 0.5 ug/ml, antibody 28 ng/ml. As for the experimental part: (§1) An microplate was pre-coated with 100 μl/well of 0.5 μg/ml human TNFR2 or cynomolgus TNFR2 (the same antigen protein as in Example 4). […] A mouse anti-human IgG Fc-HRP working solution (1:10000 dilution) was added to the plate at 100 μl/well after plate washing, and incubated with shaking at room temperature for 1.0 h. The plate was washed again, a HRP substrate TMB was added for color development prior to the termination of the reaction by adding termination solution. An microplate reader was used to read the absorption value.

The target of assay [6] is T6, cynomolgus TNFR2 (Sino 90102-C08H). Kind of assay: ELISA, coated antigen 0.5 ug/ml, antibody 28 ng/ml. As for the experimental part:
as §1

As a reminder, the IC50 is the concentration that gives 50% inhibition. The low end stands for inhibition by little substance, the high end for a need for much substance.

B1: TNFR2 antibody #309 (antibody, V domains shown)
VH: EVQLQESGAELVKPGASVKLSCKASGYTFTSYWIHWVKLRPGQGFEWIGEINPNNGGTDYNEKFKRKATLTVDKSSSTAYMELSSLTSEDSAIYYCTIDSMITTTWFAYWGQGTTVTVSS
VL: EIVMTQSQKLMSTVVGDRVSVTCKASQNVGTNVAWFQQKPGQSPKALINSASYRYSGVPDRFTGSGSGTDFTLTISSVQSEDLAEYFCQQYNSYPFTFGSGTKLEIK
In assay [1], B1 had an IC50 of 0.116 µg/mL. Also, in assay [2], the “% to 002# OD (2 nM)” value amounted to 75.9%. In addition, the “% to 002# OD (20 nM)” value in assay [2] turned out to be 96.6%. Further, the binding result with mouse TNFR2 and with human CREG-His protein was “no binding (tested: 12 ng/mL)” each time. Also, the “ELISA OD” value was found to be 1.9 OD in assay [3] and 2.27 OD in assay [4].

B2: TNFR2 antibody #395 (antibody, V domains shown)
VH: EVQLQESGPVLVQPSQSLSITCTVSGFSLTSYSVHWVRQSPGKGLEWLGVIWSDGGTDYSAAFISRLSISKDNSKSQVFFKMNSLQADDTAIYYCARNDDGGDYAMDYWGQGTTVTVSS
VL: EIVLTQSPALMSASPGEKVTMTCSASSSVSYMYWYQQKPRSSPKPWIYLTSNLASGVPARFSGSGSGTSYSLTISSMEAEDAATYYCQQWSSNPLTFGAGTKLEIK
B2 yielded an IC50 in assay [1] of 0.021 µg/mL. Moreover, the “% to 002# OD (2 nM)” value in assay [2] was found to be 138%. Further, the “% to 002# OD (20 nM)” value in assay [2] came to 178%. For the same molecule, the “ELISA OD” value in assay [5] worked out at 3.17 OD; in assay [6] it was 3.15 OD. Besides, the binding result with mouse TNFR2 and in the assay with human CREG-His protein was “no binding (tested: 28 ng/ml)” throughout.

B3: TNFR2 antibody #088 (antibody, V domains shown)
VH: EVQLQESGGGLVQPGGSLNLSCAASGFAFSTYDLSWVRQTPGKRLEWVAYINNGGISTYYSDTVKGRFTITRDNAKNTLYLQMSSLKSEDTAMYYCVRGPFYGSANYFDYWGQGTTVTVSS
VL: DILMTQSPASLSLFVGETVTITCRASENIYSNLAWYQQKQGKSPQLLVYDATKLAEGVPSRFSGSESGTQYSLKINSLQSEDFGTYYCQHFWVTPWTFGGGTKLEIK
Molecule B3 displayed an IC50 in assay [1] of 0.185 µg/mL. Also, the “% to 002# OD (2 nM)” value in assay [2] stood at 69.3%. For the same molecule, in assay [2], the “% to 002# OD (20 nM)” value amounted to 94.1%. In addition, the binding result with mouse TNFR2 and with human CREG-His protein was “no binding (tested: 12 ng/mL)” each time. For the same molecule, the “ELISA OD” value was 1.31 OD in assay [3] and 1.44 OD in assay [4].
